US20220233710A1 (NANTONG YICHEN BIOPHARMA, published 2022)
Values belong to the binder of their own block, whether it stands above or below them.

Legend:
recombinant mouse IL-1β = biological target: T1, recombinant mouse IL-1β (mouse, UniProt P10749 118-269); test: ELISA, IL-1β coated on plate, anti-human Fc-HRP
T1 construct: Bought protein; also called murine IL-1β
Experimental: (§1) Recombinant human IL-1β (Thermo Fisher Scientific), recombinant mouse IL-1β (Sino Bio), recombinant mouse IL-1R (Sino Bio), or recombinant human IL-1R (100 ng/well) (DPBS buffer, pH7.4) was coated in a 96-well plate, and incubated overnight at 4° C. After blocked by PBST (0.5% Tween-20 in PBS) containing 2% skimmed milk powder for 1 hour at room temperature, and being washed with PBST for 3 times, the gradient diluted bispecific molecules (0.006 nM-100 nM) were added and incubated at 37° C. for 1 h. After being washed with PBST for 3 times, anti-human Fc-HRP (KPL; 1:2500) secondary antibody diluted by 2% milk/PBST was added and incubated at room temperature for 1 h, and then washed by PBST for 5 times. QuantaBlu fluorescent peroxide enzyme substrate (Life technologies, Cat. 15169) was used for color development, and reading was performed at 325 nm and 420 nm, or TMB color reagent (Bio Legend) was used for color development, and the reading was performed at 650 nm. Data was analyzed by nonlinear regression using specific binding model in Prizm Graphpad software.

recombinant human IL-1β = biological target: T2, recombinant human IL-1β (human, UniProt P01584 117-269); test: ELISA, IL-1β coated on plate, anti-human Fc-HRP
T2 construct: Bought protein
Experimental: as §1

Recombinant human IL-6 = biological target: T3, Recombinant human IL-6 (human, UniProt P05231 30-212); test: ELISA, human IL-6 coated on plate, anti-human Fc-HRP
T3 construct: Bought protein
T3 sequence (P05231 30-212 limits assumed): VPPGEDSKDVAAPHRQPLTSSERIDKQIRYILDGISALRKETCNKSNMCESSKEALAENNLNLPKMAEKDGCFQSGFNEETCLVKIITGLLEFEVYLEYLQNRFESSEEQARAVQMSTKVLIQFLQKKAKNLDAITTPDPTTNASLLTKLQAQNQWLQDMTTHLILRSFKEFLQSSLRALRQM
Experimental: Recombinant human IL-6 (SinoBiological) (100 ng/well) (PBS buffer, pH7.4) was coated in a 96-well plate, and incubated overnight at 4° C. After blocked with PBST containing 2% skimmed milk powder (0.5% Tween-20 in PBS) at room temperature for 1 hour, followed by being washed for 3 times with PBST, the bispecific molecules (0.04 nM-30 nM) in gradient dilutions were added and incubated at 37° C. for 1 h. After being washed for 3 times with PBST, anti-human Fc-HRP (KPL, 1:2500) secondary antibody diluted by 2% milk/PBST was added and incubated at room temperature for 1 h, followed by being washed for 5 times with PBST. TMB (BioLegend) was used for color development, and readings was performed in Thermal VARIOSKAN FLASH plate reader at 650 nm. Data was analyzed with a log[agonist] vs response (3 parameters) model in “non-linear regression” by Graphpad Prizm software.

B1: aIL-1β-2 antibody (antibody, V domains shown)
VH: QVQLQQWGAGLLKPSETLSLTCAVYGGSFSDYYWSWIRQPPGKGLEWIGEIDHSGSTNYNPSLKSRVTISVDTSKNQFSLKLSSVTAADTAVYYCARASPSSGWTLDYWGQGTLVTVSS
VL: QSVLTQPPSVSVSPGQTASITCSGDKLGDKFAFWYQQKPGQSPVLVIYLDNKRPSGIPERFSGSNSGNTATLTISGTQALDEADYYCYAWADTYEVFGGGTKVDIKR
- binding result (recombinant mouse IL-1β): binds
- binding result (recombinant human IL-1β): binds

B2: BSI-13 (bispecific antibody, human IgG1, kappa, N297A)
heavy: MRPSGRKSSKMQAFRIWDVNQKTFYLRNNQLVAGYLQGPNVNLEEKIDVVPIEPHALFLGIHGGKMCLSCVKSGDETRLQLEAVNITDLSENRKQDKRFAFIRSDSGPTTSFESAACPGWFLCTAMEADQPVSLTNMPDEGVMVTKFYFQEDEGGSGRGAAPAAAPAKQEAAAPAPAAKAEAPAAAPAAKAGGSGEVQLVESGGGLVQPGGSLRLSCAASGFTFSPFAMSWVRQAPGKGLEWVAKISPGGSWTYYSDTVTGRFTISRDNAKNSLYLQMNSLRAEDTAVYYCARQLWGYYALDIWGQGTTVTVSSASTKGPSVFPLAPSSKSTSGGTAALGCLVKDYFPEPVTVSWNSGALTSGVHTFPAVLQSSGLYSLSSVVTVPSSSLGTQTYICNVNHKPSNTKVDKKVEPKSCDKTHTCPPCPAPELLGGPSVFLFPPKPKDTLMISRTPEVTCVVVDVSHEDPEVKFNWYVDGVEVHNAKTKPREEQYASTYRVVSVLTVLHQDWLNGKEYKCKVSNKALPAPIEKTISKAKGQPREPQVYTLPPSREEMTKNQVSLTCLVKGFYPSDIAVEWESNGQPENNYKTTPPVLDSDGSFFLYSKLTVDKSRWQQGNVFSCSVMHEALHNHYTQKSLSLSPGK
light: EIVLTQSPATLSLSPGERATLSCSASISVSYMYWYQQKPGQAPRLLIYDMSNLASGIPARFSGSGSGTDFTLTISSLEPEDFAVYYCMQWSGYPYTFGGGTKVEIKRTVAAPSVFIFPPSDEQLKSGTASVVCLLNNFYPREAKVQWKVDNALQSGNSQESVTEQDSKDSTYSLSSTLTLSKADYEKHKVYACEVTHQGLSSPVTKSFNRGEC
notes: aIL-6 antibody fused with IL-1RA by a linker peptide
- binding result (Recombinant human IL-6): binds

Further lines, results first:

- binding result (Recombinant human IL-6): binds
B3: BSI-16 (bispecific antibody, human IgG1, kappa)
heavy: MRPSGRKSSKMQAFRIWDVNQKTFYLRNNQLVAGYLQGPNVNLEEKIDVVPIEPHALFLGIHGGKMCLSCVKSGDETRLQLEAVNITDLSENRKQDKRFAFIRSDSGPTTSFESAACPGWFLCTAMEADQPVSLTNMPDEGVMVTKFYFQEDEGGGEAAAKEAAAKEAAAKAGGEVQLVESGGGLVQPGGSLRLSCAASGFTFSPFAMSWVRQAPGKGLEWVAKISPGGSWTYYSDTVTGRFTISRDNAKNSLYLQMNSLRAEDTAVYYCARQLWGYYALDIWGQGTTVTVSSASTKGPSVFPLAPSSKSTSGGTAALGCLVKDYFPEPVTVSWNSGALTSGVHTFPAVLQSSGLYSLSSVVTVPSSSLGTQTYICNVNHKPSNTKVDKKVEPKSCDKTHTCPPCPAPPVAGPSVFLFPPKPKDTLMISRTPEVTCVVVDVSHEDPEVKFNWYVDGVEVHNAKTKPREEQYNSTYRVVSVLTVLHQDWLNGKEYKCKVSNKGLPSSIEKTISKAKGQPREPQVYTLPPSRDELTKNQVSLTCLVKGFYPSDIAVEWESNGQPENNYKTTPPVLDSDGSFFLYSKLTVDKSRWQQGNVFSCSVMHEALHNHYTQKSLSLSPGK
light: B2 light
notes: as for B2

- binding result (Recombinant human IL-6): binds
B4: aIL-6 antibody (antibody, human IgG1, kappa, N297A, V domains shown)
VH: EVQLVESGGGLVQPGGSLRLSCAASGFTFSPFAMSWVRQAPGKGLEWVAKISPGGSWTYYSDTVTGRFTISRDNAKNSLYLQMNSLRAEDTAVYYCARQLWGYYALDIWGQGTTVTVSS
VL: EIVLTQSPATLSLSPGERATLSCSASISVSYMYWYQQKPGQAPRLLIYDMSNLASGIPARFSGSGSGTDFTLTISSLEPEDFAVYYCMQWSGYPYTFGGGTKVEIKR
